Consider 107 sequences from the supplement of paper PMC9942255.

The data set relates to Bacillus subtilis DB104 (SP-AmyQ fusion secretion). Briefly: AmyQ secretion efficiency, weighted average sort bin (1 = best secretion, 10 = worst) (bin number (weighted average, 1-10)); higher = lower secretion efficiency. A digest of the protocol: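 The secretion score was taken as the read-frequency-weighted mean bin number, normalised to beads per bin, with low-abundance sequences excluded. Bins came from large-particle flow cytometry sorting of occupied alginate beads (~65 nL, about 0.3 cells each, with fluorescein-starch) into 10 equally populated groups by green/red fluorescence ratio after about 13 h at room temperature and nile red staining. The cells were a B. subtilis DB104 library with mature AmyQ fused to designed signal peptides, integrated at amyE, and each bin's amplicons were Illumina-sequenced.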

On to MFSIFSLIMMTGLLFGLTSPAFAAEK, for which the AmyQ secretion efficiency was found to be 4.78.

Take MKNRKRKLVVSVTLFFSFLTIGPLAHAQNS: the AmyQ secretion efficiency was determined as 1.21. MGLGKKLSVAVAASFMSLSISLPGGQAAEG displayed an AmyQ secretion efficiency of 1.55. MFKKHTISLLIIFLLASAVLAKPIEEHTV showed an AmyQ secretion efficiency of 5.81. Turning to MNIKKFAKQATVLTFTTALLAGGATQAFAKET, the AmyQ secretion efficiency is 3.3. Next, MTKYTVIASILLSFLSVLSGGHHESKAFPV: 6.55; MKRFLIGAGVAAVILRKKKKAKHQTHSQEM: 6.98. MLKKTILAAFILVGSTLGAFSFSSDASAKHV: the AmyQ secretion efficiency is 2.16.

Sequence MMKKLFHSTLIVLLFFSFFGVQPIHAAED returned an AmyQ secretion efficiency of 3.19. For the sequence MKKIVSILFMFGLVMGFSQFQPSTVFGADK, the AmyQ secretion efficiency amounted to 4.23.

In the case of MTTGLLASLVLCLSLSPLVSTNEVFAATT, the AmyQ secretion efficiency turned out to be 4.99.

Take MKRLLVSLRVWMVFLMNWVTPDRKTAAARRK: the AmyQ secretion efficiency is 7.14. For MGTLTTLTSLLLAGLCTAAQMVFVTHASAEES the value was 3.24; for MKKRITYSLLALLAVVAFAFTDSSKAKAASA, 2.18. For MKKRLIAPMLLSAASLAFFAMSGSAQWAAY the value was 6.21. Consider MKRIRIPMTLALGAALTIAPLSFNSAEEN, for which the AmyQ secretion efficiency is 7.4. For MKKVLMAFIICLSLILSVLAAPPSGAKIESV the value was 5.54; for MKKKQQRLALTAAAGLGLTALHSAPAAKAAPL, 5.39; for MRKNRLLLNILALFVLSLGLLSFMVTPVSAASK, 1.08.

In turn, MLKKKWMVGLLAGCLAAGGFSYNSPPFFFGAAFATEN had an AmyQ secretion efficiency of 5.86. MKVLLSALLLLLFAFEPSGSGKKL: the AmyQ secretion efficiency was determined as 5.88.

MLCVMMLLFSAIASFPVSDQAKDQ returned an AmyQ secretion efficiency of 5.98. With MLKKKWMVGLLAGCLAAGGFSYNAFLTEN, the AmyQ secretion efficiency was determined as 6.4. In turn, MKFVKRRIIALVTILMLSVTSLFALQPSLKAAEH showed an AmyQ secretion efficiency of 2.75. In turn, MSSGTVIASILLSFLSVLSGGHHESKAFPV displayed an AmyQ secretion efficiency of 6.28. MLKKVKRAAFILVGSTLGAFSFSSDASAKHV registered an AmyQ secretion efficiency of 1.33. On to MKKKKMLSMLTVMIASLFIFSSQALAVQY, for which the AmyQ secretion efficiency stood at 3.15. Sequence MRFTKVVGFLSVLGLAASSILLLFSIVFPLTAQAEKA registered an AmyQ secretion efficiency of 2.15. MKNMSCKLVVSVTLFFSFLTIGPLAHFQNS displayed an AmyQ secretion efficiency of 5.82.

With MKSKWMSGLLLVAVGFSFTQVMVHAGRR, the AmyQ secretion efficiency turned out to be 7.76. For the sequence MKLAKRVSALTPSTTLAIEAKAKEL, the AmyQ secretion efficiency amounted to 7.23.

Sequence MTMLRKIIGWILLLCIIATPLFAFTVIASGKEV returned an AmyQ secretion efficiency of 5.08. Consider MKLKKRVSMFLVALTMCGGLFVTPSFPPTAPAKAVKT, for which the AmyQ secretion efficiency came to 5.25. For the sequence MFNRLFRVCFLAALIMAFTLPNSVYSQKP, the AmyQ secretion efficiency was determined as 3.32. MKLKKRVSMFLVALTMCGGLFVTPFKAVKT had an AmyQ secretion efficiency of 6.39. The sequence MRSKKLWISLLFALTLIFTMAFSNMSAQWAGK registered an AmyQ secretion efficiency of 6.53. MKKTIMSFVAVAALSTTAFVLSSFGAHASAKEI had an AmyQ secretion efficiency of 3.42. In the case of MFNRLFRVCFLAALIMAFTLPNSVYNQKP, the AmyQ secretion efficiency is 6.82. For MKSKWMSGLLLVAVGFSFTQVMTHAGET the value was 7.1; for MFNRLFRVCFLAALIMAFEEEDDEVYAQKP, 4.05; for MRNLTKTSLLLAGLCTAAQSEFVTHASAEES, 4.61. For the sequence MHLIRAAGAVCLAVVLIAGCREAEGENT, the AmyQ secretion efficiency was found to be 4.69. For the sequence MKLKKRVSMFLVALLMCLLLFVSTPAKAVKT, the AmyQ secretion efficiency was found to be 4.33. MKRLFMKASLVLFAVVFVFAVKGADEEDEEEAKAETH yielded an AmyQ secretion efficiency of 7.15.

In turn, MRKWYFILLAGVLTSVILAFVYDKGKANEE had an AmyQ secretion efficiency of 2.67. As for MNLWMRKTLVVLFTIVTFGLVSPPAALMADKP, the AmyQ secretion efficiency was determined as 2.15. MKKRFFGPIILAFILFTASTAFTAIAGAIAIPS registered an AmyQ secretion efficiency of 4.73. Regarding MKKWRKRLIIAVSLAIAIVLFMYTKGEAKAAGM, the AmyQ secretion efficiency came out at 3.1. MPYLKRVLLLLVTGLFMSLFAVTATASAQTK displayed an AmyQ secretion efficiency of 1.71. For the sequence MKKELRRKKKRCLSLSPLVSTNEVFAATT, the AmyQ secretion efficiency is 6.21.

In turn, MKSKGSIMACLILFSFTITTFINTETKSAFSN registered an AmyQ secretion efficiency of 6.7. Turning to MKKAKRVFLSVVLVTTVFLVKQQESVAQAKQL, the AmyQ secretion efficiency is 3.28.

For MPYLKRVLLLLVTGLFMSLFAVTATASNQTG, the AmyQ secretion efficiency came out at 1.29. For the sequence MFNRLFRVCFLAALIMAFTLPNSKYAQKP, the AmyQ secretion efficiency is 6.56. Sequence MTKKAWFLPLVCVLLISGWLAPAASASRQTT showed an AmyQ secretion efficiency of 1.94.

Consider MMKKGLLAGALTATVLFRKCAVRVPGIISPKTAEAASQ, for which the AmyQ secretion efficiency stood at 6.57. Turning to MLKKKWMVGLLAGCLAAGGFSYNTFATEN, the AmyQ secretion efficiency was found to be 5.24. Next, MRSYIKSKKRCKQQLILFVPTALADNS: 7.44; MPYLKRVLLLLVTGLFMSLFAVTATVSAQTG: 1.43; MKKQIITATTAVVLGSTLFAGAVSAQSI: 1.69. Sequence MGMLFKIIGWILLLCIIPLFAFTVIASGKEV registered an AmyQ secretion efficiency of 2.66.

Regarding MKSKWMSGLLLVAVGFSFTQVMVHNGET, the AmyQ secretion efficiency is 8.98.

The sequence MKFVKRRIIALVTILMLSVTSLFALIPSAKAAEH gave an AmyQ secretion efficiency of 2.54.

Turning to MFNRLFRVCFLAALIMAFTLPNSWYAQKP, the AmyQ secretion efficiency turned out to be 7.03. For MRNLTKTSLLLAGLCTAAQMVFVTHASAKKK the value was 3.84; for MKKRKRRNFKRFIAAFLVLALMISLVPADTLAKST, 1.68. The sequence MKKLLAAGIIGLLTVTSIASPSFAAEK yielded an AmyQ secretion efficiency of 2.48. Next, MKSKGSIMACLILFSFTITTFINTETHSAFSN: 7.73; MMKKGLLAGALTATVLFGTCAVDVPGIISPKTIEAASQ: 4.02; MKKIVSILFMFGLVMGFSQFQPSTMFAADK: 2.83. As for MRKKLKWLSFLLGFIILLFLFKYQRSNNDS, the AmyQ secretion efficiency was determined as 7.7. Turning to MKKMLGKLLITAGILVFFAVVVKDVFSAGL, the AmyQ secretion efficiency is 3.11.

MTMLRKIIGWILLLCIIPLFAFTVIASGASK came in with an AmyQ secretion efficiency of 7.69. In the case of MRSYIKVLTMCFLGLILFVPTFLADNS, the AmyQ secretion efficiency stood at 5.95. For MLTKRLLTIYIMLLGLIFVILSALSAAWFPGAAQAEEK the value was 4.31. MKKAFILSAAAAVGLFTFGGVQQASAADD displayed an AmyQ secretion efficiency of 3.55. Take MKKIWIGMLAAAVLLLMVPKVSLRDAA: the AmyQ secretion efficiency came out at 4.91.

Regarding MPYLKRVLLLLVTGLFMSLFAVTATASRQTG, the AmyQ secretion efficiency came to 1.19. MKWMCSICCAAVLLAGGAVQAEAV: the AmyQ secretion efficiency turned out to be 2.89. The sequence MLMKVILAAFILVGSTLGAFSFSSDASAKHV showed an AmyQ secretion efficiency of 2. Next, MKWMTNCSICCAAVLLAGGAAQAEAV: 3.49.

In the case of MKLKSKLRKKCRRRSTVFVATTIANAPTH, the AmyQ secretion efficiency worked out at 7.48. As for MRKSLITLGLASIVIGTSSFLIPFTSKTASAETL, the AmyQ secretion efficiency is 2.2. Sequence MPYLKRVLLLLVTGLFMSLFAVTATASWQTG came in with an AmyQ secretion efficiency of 2.84. The sequence MTSGTLWISLLFALTLIFTMAFSNMSAQAAGK returned an AmyQ secretion efficiency of 2.62. Next, MKIRKIRRRKALSFGMLISAVPALAAGT: 5.54. On to MLKKIALTLCPAIVGSLLFFTAPDSAHVS, for which the AmyQ secretion efficiency is 6.1. With MKKAFILSAAAAVGLFTFGGVQQLSAKEL, the AmyQ secretion efficiency was 3.38.

In turn, MTKLKMLSMLTVMIASLFIFSSQGLAVQY displayed an AmyQ secretion efficiency of 2.52.

As to MLCVMMLLFSAIASFPVSGQAKDQ, the AmyQ secretion efficiency is 5.05. MRKKLKWLSFLLGFIILLFLFTLTILKYQFSNNDS returned an AmyQ secretion efficiency of 7.28.

MMGIMIFLTSFMLLAMTGQTALAKDV yielded an AmyQ secretion efficiency of 3.75.

As for MKLKKRVSMFLVALTMCGGLFVTPAKAVST, the AmyQ secretion efficiency worked out at 2.23.

On to MKVPKTMLLSTAAGLLTATSVSAHYV, for which the AmyQ secretion efficiency was 6.58. In turn, MRNLTKYYTTLAGLCTAAQMVFVTHASAEES gave an AmyQ secretion efficiency of 3.01. Next, MKKLIVLLFFSFFGVQPIHAKKQ: 5.47; MKKRFFGPIILAFILFAGTASAIAIPS: 5.82; MFKKHTISLLIIFLLASAVLAKPPPTTATIEAHTV: 7.2. The sequence MKKRKRRNFKRQGTQYKGLALMISLVPADVLAKST registered an AmyQ secretion efficiency of 7.46. MKKCLLFLTTIALILKRRTNAFAKNT came in with an AmyQ secretion efficiency of 7.37. Take MTTTIAWFLPLVCVLLISGWLAPAASASAQTT: the AmyQ secretion efficiency worked out at 2.38.

In turn, MKLSVKIAGVLTVAAAAMTAKMYDTAKGN came in with an AmyQ secretion efficiency of 4.44. As to MFNRLFRVCFLAALIMAFTLPNSVYGQKP, the AmyQ secretion efficiency is 2.74. On to MTLWMTSTLLVVLFTIVTFGLVSPPAALMADKP, for which the AmyQ secretion efficiency came to 5.58. Next, MRNLTKTSLLLAGLCTAAQMVFVTHVSAEES: 3.09; MIVIMSFNLIILLFISIIVFLSVIQPQPS: 6.9; MKKKQVMGYTTAAAGLGLTALHSAPAAKAAPL: 7.28.
